Test results as given in PMC12775996 (2025).

B1: human platelet factor 4 (natural protein)
chain: EAEEDGDLQCLCVKTTSQVRPRHITSLEVIKAGPHCPTAQLIATLKNGRKICLDLQAPLYKKIIKKLLES
B2: human platelet factor 4 (natural protein)
chain: B1 chain
modifications: wild-type capsid; copies by convention for the Ad5 virion; hexon is the PF4-binding protein; internal proteins IIIa, VI and VIII left out; Y477 is the fiber residue of the paper (AAQ19310.1)

Legend:
[1] = biological target: T1, adenovirus type 11 vector particles (human adenovirus type 11); assay: SPR; hydrophobic (slow) component of one-to-two model
[2] = biological target: T2, adenovirus type 13 vector particles (human adenovirus type 13); assay: as above
[3] = biological target: T1, adenovirus type 11 vector particles; assay: SPR; electrostatic (fast) component of one-to-two model
[4] = biological target: T2, adenovirus type 13 vector particles; assay: as above
[5] = biological target: T3, adenovirus type 5 vector particles (wild-type capsid) (human adenovirus type 5); assay: SPR; hydrophobic (slow) component of one-to-two model
[6] = biological target: T3, adenovirus type 5 vector particles …; assay: as above; remark: listed apart in the source
[7] = biological target: T3, adenovirus type 5 vector particles …; assay: SPR; electrostatic (fast) component of one-to-two model

Row | Binder | Kd [1] | koff [1] | Kd [2] | koff [2] | Kd [3] | koff [3] | Kd [4] | koff [4] | koff [5] | Kd [6] | koff [7]
1 | B1 | 13.4 nM | 0.000482 s⁻¹ | 12.9 nM | 0.000363 s⁻¹ | 742 nM | 0.00879 s⁻¹ | 774 nM | 0.00761 s⁻¹ | – | – | –
2 | B2 | – | – | – | – | – | – | – | – | 0.00083 s⁻¹ | 24.4 nM | 0.0124 s⁻¹
